# Source: the DeepSol protein solubility set
# Assay: soluble on expression in E. coli; label from the status in PepcDB or PDB records
row,Sequence,soluble on expression in E. coli
1,MAHHHHHHMADTQPVPATVTSAHGAHAEAFGESFIVTLSSENLRVQLLSHGAALNSVQVRKPHPAASATASASATAEQDDEWLEVCLGYTNPEEALSADAVIGHTIGRYAGRIANGEFEIANTTYTLAKNFGPHNLHGGPVGFQHQEWKYLLSDGRDETGVAFHLVSPHMDQGFPGELFVTATYSIIKSAPVPTLKYVLQASLSDNTPVDMTVINLTNHAYWNLNGVPRPAAADAVAPLPRSIANHYLQLQSKYFAVTDELSIPNGDMRPVEGTPHDYSALRCVAEGMEATKEEGRDGGGYDDPVALETWDSTLREAALVYSPATKLRMQVCTTNPAIVVYTANHLPADASGSKGQRFQQHSAICLECQYFPNSPNVRAFPSTVLKKGEAYNETTIHAFQFMNADITPEEKLLRRQ,soluble
2,GPGSMRSAVNLGGAPRVPSQRLPAFEGVSPRIVARQVPAHRGEYVSLVLRPTSLNAQRNSLVASCVVTDESVEVMGLPADAEVAQVNEFVCYINPSSGELEYYQHGTYNDEYDVDVYRKLLELCPKFPALF,not soluble
3,MKIKTRFAPSPTGYLHVGGARTALYSWLFARNHGGEFVLRIEDTDLERSTPEAIEAIMDGMNWLSLEWDEGPYYQTKRFDRYNAVIDQMLEEGTAYKCYCSKERLEALREEQMAKGEKPRYDGRCRHSHEHHADDEPCVVRFANPQEGSVVFDDQIRGPIEFSNQELDDLIIRRTDGSPTYNFCVVVDDWDMEITHVIRGEDHINNTPRQINILKALKAPVPVYAHVSMINGDDGKKLSKRHGAVSVMQYRDDGYLPEALLNYLVRLGWSHGDQEIFTREEMIKYFTLNAVSKSASAFNTDKLLWLNHHYINALPPEYVATHLQWHIEQENIDTRNGPQLADLVKLLGERCKTLKEMAQSCRYFYEDFAEFDADAAKKHLRPVARQPLEVVRDKLAAITDWTAENVHHAIQATADELEVGMGKVGMPLRVAVTGAGQSPALDVTVHAIGKTRSIERINKALDFIAERENQQ,soluble
4,HDGIERELTIAVNNIIPGDLLVAFIRDFERQFTSTTLTVDLEVYNGCWDALYSKRADLVYGAPHAVPSSEGIISEPVGQMEWDFVVSPLHPLAAKRHPLENSELRHYPAVCIRDTSVNFPPMQAWLLEGQKPIFVPDFATAIALIE,not soluble
5,MGSDKIHHHHHHMTTDILNISEEQLVDYSKAHNEPSWMTELRKKALKLTETLEMPKPDKTKLRKWDFDSFKQHDVKGDVYQSLSQLPESVREIIDVDHSKNLVIQHNNTIAYTQVDDNASKDGVIVEGLADALMNHSDLVQKYFMKDAVTVDEHRITALHTALVNGGVFVYVPKNVVVEHPVQYVVLHDDENASFYNHVIIVTEESAEVTYVENYLSNASGEGNQLNIISEVIAGANSNITYGSVDYMDKGFTGHIIRRGITEADASINWALGLMNEGSQIIDNTTNLFGDRSTSSLKSVVIGTGEQKINLTSKIVQYGKETDGYILKHGVMKEHASSVFNGIGYIKHGGTKSIANQESRVLMLSEHARGDANPILLIDEDDVQAGHAASVGRVDPDQLYYLMSRGISQREAERLVIHGFLDPVVRELPIEDVKRQLREVIERKVSK,not soluble
6,AMKNYYSSNPTFYLGIDCIIFGFNEGEISLLLLKRNFEPAMGEWSLMGGFVQKDESVDDAAKRVLAELTGLENVYMEQVGAFGAIDRDPGERVVSIAYYALININEYDRELVQKHNAYWVNINELPALIFDHPEMVDKAREMMKQKASVEPIGFNLLPKLFTLSQLQSLYEAIYGEPMDKRNFRKRVAEMDFIEKTDKIDKLGSKRGAALYKFNGKAYRKDPKFKL,soluble
7,MSTMKDEIEKVPASQYKGQDFQPLAEKSAIAHAKKYREEYEKLGEQFFKDNFSLNVKATNVVGSGDGAEVYVHCDDHDIVFNASIPFDMESIHEEGSMRSNDNGDTMSMMVGTVLSGFEYRANKEKMDNLEKYLKDKEDKYHYTGFTDEAITKTQNIGYQNNYFYITTSSTKLRDYRKHFEPLIKESDDDFKKHMKQLKSKKDTYINTEITTTLFSTLDEYDEKIIRKNTLSMAKEMRKEPSIPHNFTFHLLFSNNKLKINDPNISNNQINEYRVFDHDGFKNLEHHHHHH,soluble
8,GHHHHHHHHHHSSGHIEGRHNMPVVIKTEGPAWTPLEPKLITRLADTVRTKGLRSPITMAEVEALMSSPLLPHDVTNLMRVILGPAPYALWMDAWGVQLQTVIAAATRDPRHPANGQGRGERTNLDRLKGLADGMVGNPQGQAALLRPGELVAITASALQAFREVARLAEPAGPWADITQGPSESFVDFANRLIKAVEGSDLPPSARAPVIIDCFRQKSQPDIQQLIRAAPSTLTTPGEIIKYVLDRQKIAPLTDQGIAAAM,soluble
9,VVKQDLSDNQYIQKKPNEITSNELLLPLPNDKLLGDPKAPILMIEYASLTCYHCSLFHRNVFPKIKEKYIDTGKMLYIFRHFPLDYRGLKAAMLSHCYEKQEDYFNFNKAVFNSIDSWNYYNLSDLTLLQRIAALSNLKQDAFNQCINDKKIMDKIVNDKSLAINKLGITAVPIFFIKLNDDKSYIEHNKVKHGGYKELKYFTNVIDKLYGKAIVKLEHHHHHHHH,soluble
10,MGSDKIHHHHHHMKVFTEKIPNIPWEERPEGYTGPVWRYSKNPIIGRNPVPKGARVFNSAVVPYNGEFVGVFRIDHKNTRPFLHFGRSKDGINWEIEPEEIQWVDVNGEPFQPSYAYDPRVVKIEDTYYITFCTDDHGPTIGVGMTKDFKTFVRLPNAYVPFNRNGVLFPRKINGKYVMLNRPSDNGHTPFGDIFLSESPDMIHWGNHRFVLGRSSYNWWENLKIGAGPYPIETSEGWLLIYHGVTLTCNGYVYSFGAALLDLDDPSKVLYRSRYYLLTPEEEYETVGFVPNVVFPCAALCDADTGRVAIYYGAADTHVALAFGYIDEIVDFVKRNSM,soluble
11,STRPVGGTEYSWCRAIDGGTGIAVIALLLSRTPKLQNLQNTLDKLQIYHPTLRSNIRFDASANSFSFVVTSAADSHVEIHPFDSVSTAQIIRDSDDPCADPHRIILEHEMNKNTWINPHRWIKSESRVFIVSLYDLTDDGEQRILTFRLNTAAVDRTAAVTLLREFMKETAADGFGNGPVVAATETAVGLGKAIEELIPSGKGDKPFWARGIDVLGYSLNAFRFSNLNFVDAENSNRRSQLVRLKLDRDQTLKLVAGCKARGLKLWAALASSALIAAYSSKNLPPYQGEKYAVVTLSDCRSILEPPLTSNDFGFYHAGILHTHDLTGEEKLWDLAKRCYDSFTSSKNSNKQFTDMSDLNFLMCKAIENPNLTPSSSLRTAFISIFEDPVIDESPEPELASLGVQDYIGCASIHGVGPSVAVFDALRDGKLDCAFVYPSPLHSREQMDGLIQHMKTILLEGSASSF,soluble
12,MSLIYLHGFDSNSPGNHEKVLQLQFIDPDVRLVSYSTRHPKHDMQHLLKEVDKMLQLNVDERPLICGVGLGGYWAERIGFLCDIRQVVFNPNLFPYENMEGKIDRPEEYADIATKCVTNFREKNRDRCLVILSRHDEALDSQRSAQALHPFYEIVWDEEQTHKFKNISPYLQRIKAFKTLGEGHHHHHH,not soluble
13,SLVSVRCAECKGKLLCGRSKCPLLEKYRFLKEIKIDSRILDPSPPSIFVGRVGYPKVYAGPLVSINADPVYADSPWLWKSIEEVIRLRTSMLRVSRRFRVEDVREEKKELTEMQEMTAAIKPVDVEAEIRKISRKAEFDDVMQPMGYSAIAESIKLAENPKIPDKVEKVYYDDMKAYEALSYLYNHGFSTYYLQKIFSAGILGERKSRKLVPTRWSITAVHSIVGEAIKREIAAYKPIDKTLLFNYEHFGNHFEVILSPENYFFQLVEIWQRKSFWSPKRTGLGLTART,soluble
14,MATANEHLVAWLRDAHAMEEQAITMLTSQSSRLENYPELKTRIDRHLQETKDQAAMLERCLERLDGGTSSIKDISGKIVAFGQGLSGLFVSDEVVKGTLASYTFEHMEIASYRILIAAAEQAGDQETKRVCESILQQEIAMAEWLAQNAGEITRKFLERDQRDVTAKH,not soluble
15,VNSVTISVEGMTCNSCVWTIEQQIGKVNGVHHIKVSLEEKNATIIYDPKLQTPKTLQEAIDDMGFDAVIHNIEGR,soluble
16,SNAMRKDETSNTSPDISVAQPASALRYHLRPPRRNDGAAIHQLVSECPPLDLNSLYAYLLLCEHHAHTCVVAESPGGRIDGFVSAYLLPTRPDVLFVWQVAVHSRARGHRLGRAMLGHILERQECRHVRHLETTVGPDNQASRRTFAGLAGERGAHVSEQPFFDRQAFGGADHDDEMLLRIGPFTHPPH,soluble
17,MDVLGALKYFRKKKKIAQKDVLPKKGKQTYRRIEIGEAKLSYEDLMTALQSLGITFNEFFFMVSDTRIMASSEVKHQIECCQMGLNNTSEKKNLIHYFYQLERNPHKNALEMSIYTDIKLTFSNDWEEIPEFDETDRMVILALISSKSYYTYYDYQMVTNPAALFSENEVLQILEQMFPVKDAELRDTQTLNVAYGFYLNIITGELYKKNYAKAREYLALVSVTTIPAEIYYIHFNLRYLKNLTYYLYTGKMRYYKEVIAVIDMIESFGDARLAEGMKKEMLQLTAGRTFNLEKGQFPLNIVTEK,not soluble
18,MRYFALTDLTKPTAKFTTDAMELRQISNAYLNQAQAYLQKGLKQLKKDYKNAILYTPKTEYKRFLKWKQTFLQDLNQTQKRFFIVRAQHFSYVLLFNLLDEQVEAVIATFNNFLDEHRLEAQSKQFDLDTAVNELHDYFDQLQKNTAYSEDLPTHLTQKTEQLINARNTQLTNLLNKIATTKPPLNKQQRLLASFRNYHEHLFLKNEVKKVTWLNEPRAKKESVTPDEEH,soluble
19,MGSDKIHHHHHHMCPARLRTPRTASLPTHRRSAMTTANPLNTSFTSADAAELYQVPNWSGGWFRVSDKGLMEATPAPGLHASLRAIVDEIVDRGESLPVILRFPQVLAGRVKHLNEAFQAAINEYNYSGHYQGVFPIKVNQRRAVVETVAAAGYDYAHGLEAGSKAELALCLAQKMHPDALLCCNGFKDDGFIKLALWGRTLGKNVVITIEKFTELDRILKQAKALGVKPAVGVRFKLHARGSGQWEESGGDQAKFGLNAYELLRVVERLKEENMLDSLVMLHTHIGSQITDIRRVKVAVREAAQTYAGLIAAGADLKYLNVGGGLGVDYDGSKTTFYASMNYTVKEYAADIVYTVQEVCKAREVPEPVIVSESGRALTAHHAVLILPVVDVTGPTRNLEDQELTVPGEDSHQIVRDMYETLENISMRNYRESYNDAVGDKQTLHNLFDLGYVTLEDRARGEALFNAILRKIAKLIQGEKYVPDELEDLQKVLADKFICNFSLFQSLPDNWAIGALFPIVPLDRLNEQPTRQATLVDITCDSDGKVEKFIDLRDVKATLPLHEPGDRPYYLGAFLMGAYQDVLGSAHNLFGKVSEAHVTVRPGGRFNIDLFVRGQKARRMIESMGYEEPMLRDAIEDQADAAIGRGTLTQEQEHELLEDYGEELLGYTYLEYES,not soluble
20,MKGKSILSEGKQIQLATELVRLGARLQVLEASTTLSRERLVKLYKEVKGASPPKGMLPYSEDWFTGWQPNMHSSLFINIYNYITRYTKVRDIDAIIKSYQLYLEHIEANRLQRILSFTRAWTLVRFVESKVLSVTSCVKCTGNFLVHSLDIQSNHVCGLCHVPSRAGKTKRVAQEARAAQEAGAGELCVI,not soluble
21,MRGSHHHHHHTDPALRAAFRMSEQPRTIKIYNLLAGTNEFIGEGDAYIPPHTGLPANSTDIAPPDIPAGFVAVFNSDESSWHLVEDHRGKTVYDVASGNALFISELGPLPENVTWLSPEGEFQKWNGTAWVKDTEAEKLFRIREAEETKNNLMQVASEHIAPLQDAADLEIATEEEISLLEAWKKYRVLLNRVDTSTAQDIEWPALPGLCGR,soluble
22,MSLVMSMANKREPAPGWPIVSGEYVVGNPESCVGVVTLGSHGLEQACIDAGAAIAGPCHTENLGIEKVVANYISNPNIRFMILCGSEVQGHITGQCFKALWENGIGDDGGIIGAKGAIPFLENVNKEAVERFRRQIVEVVDLIDCEDIGKITQAIKECLSKDPGAIDEDPFIIELEGGKGGGEEEEGVIKPITPEMAIIESRMRLIGNEMCYNGLLAKWQAGYYNGKEGHHHHHH,not soluble
